According to patent publication US20200297764A1 (Memorial Sloan Kettering, published 2020):

What was measured:
[1] = target: CD33 on human CD33(+) cells (human, UniProt P20138 18-364); assay: cell-based or functional assay
CD3 on activated T cells = target: T1, CD3 on activated T cells (human, UniProt P07766 23-207); assay: flow cytometry on activated T cells, 4 C, secondary antibody, MFI
T1 construct: whole, on cells; CD3 complex on cells; the rest of the complex is not described; also called CD3 receptor
T1 sequence (P07766 23-207): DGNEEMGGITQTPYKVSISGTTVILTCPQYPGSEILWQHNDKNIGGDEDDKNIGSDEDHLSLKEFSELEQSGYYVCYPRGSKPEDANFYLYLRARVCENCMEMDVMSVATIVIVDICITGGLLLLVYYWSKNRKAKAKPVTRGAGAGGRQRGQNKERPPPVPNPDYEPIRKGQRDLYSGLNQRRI
Protocol: FIG. 13 depicts binding properties of an exemplary CD33-CD3 IgG-scFv (BsAb) to CD33 and CD3. (A) MOLM13 cells were reacted for 30 min at 4 C.° using decreasing doses of hM195 (anti-CD33 IgG), the heterodimeric BsAb, and an exemplary CD33-CD3 IgG-scFv. Cells were washed and immunostained with a fluorochrome-conjugated secondary antibody and mean fluorescence intensity (MFI) assayed by flow cytometry. (B) MOLM13 cells were reacted for 30 min, 4 h or 24 h at 37 C.° or 4 C.° with 1 μg/ml of hM195 (anti-CD33 IgG), the heterodimeric IgG BsAb, and exemplary CD33-CD3 IgG-scFv. Cells were washed and immunostained with a fluorochrome-conjugated secondary antibody at 4 C.°. After washing the unbound antibody, MFI was analyzed by flow cytometry. (C) Activated T cells were reacted for 30 min at 4 C.° with decreasing doses of hOKT3 (anti-CD3 IgG), the heterodimeric BsAb, and exemplary CD33-CD3 IgG-scFv. Cells were washed and immunostained with a fluorochrome-conjugated secondary antibody and MFI analyzed measured by flow cytometry.

Sequence of CD33 on human CD33(+) cells (P20138 18-364): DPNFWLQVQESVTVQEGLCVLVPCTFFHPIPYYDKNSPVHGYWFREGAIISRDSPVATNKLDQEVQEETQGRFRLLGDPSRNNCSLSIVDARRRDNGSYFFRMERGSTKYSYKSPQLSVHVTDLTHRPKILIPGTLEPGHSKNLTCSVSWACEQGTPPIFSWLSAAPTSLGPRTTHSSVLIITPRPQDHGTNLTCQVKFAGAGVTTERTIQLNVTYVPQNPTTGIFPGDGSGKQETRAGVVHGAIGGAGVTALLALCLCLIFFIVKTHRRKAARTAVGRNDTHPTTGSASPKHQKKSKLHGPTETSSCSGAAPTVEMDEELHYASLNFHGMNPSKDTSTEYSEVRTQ

B1: CD33-BsAb (BiClone 133), exemplary CD33-CD3 IgG-scFv bispecific antibody agent (bispecific antibody)
heavy: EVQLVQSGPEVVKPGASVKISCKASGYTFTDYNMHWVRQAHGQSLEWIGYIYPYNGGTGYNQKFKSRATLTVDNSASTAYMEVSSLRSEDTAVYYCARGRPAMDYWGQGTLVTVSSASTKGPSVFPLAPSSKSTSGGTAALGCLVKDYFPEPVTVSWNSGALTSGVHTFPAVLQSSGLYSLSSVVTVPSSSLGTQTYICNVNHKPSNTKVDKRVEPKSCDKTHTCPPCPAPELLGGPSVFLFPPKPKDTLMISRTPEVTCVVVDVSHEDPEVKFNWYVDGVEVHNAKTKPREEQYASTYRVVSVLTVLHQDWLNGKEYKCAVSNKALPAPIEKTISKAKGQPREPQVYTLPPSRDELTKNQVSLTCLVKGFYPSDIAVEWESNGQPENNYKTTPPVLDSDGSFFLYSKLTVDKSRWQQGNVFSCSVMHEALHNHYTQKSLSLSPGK
light: EIVLTQSPATLSVSLGERATISCRASESVDNYGISFMNWFQQKPGQPPRLLIYAASNQGSGVPARFSGSGPGTDFTLTISSMEPEDFAMYFCQQSKEVPWTFGGGTKLEIKRTVAAPSVFIFPPSDEQLKSGTASVVCLLNNFYPREAKVQWKVDNALQSGNSQESVTEQDSKDSTYSLSSTLTLSKADYEKHKVYACEVTHQGLSSPVTKSFNRGECTSGGGGSGGGGSGGGGSQVQLVQSGGGVVQPGRSLRLSCKASGYTFTRYTMHWVRQAPGKCLEWIGYINPSRGYTNYNQKFKDRFTISRDNSKNTAFLQMDSLRPEDTGVYFCARYYDDHYSLDYWGQGTPVTVSSGGGGSGGGGSGGGGSGGGGSGGGGSGGGGSDIQMTQSPSSLSASVGDRVTITCSASSSVSYMNWYQQTPGKAPKRWIYDTSKLASGVPSRFSGSGSGTDYTFTISSLQPEDIATYYCQQWSSNPFTFGCGTKLQITR
notes: IgG-scFv format, tetravalent (2+2): two arms to CD33 and two to CD3; also called CD33-specific BsAb; anti-CD33 BsAb
[1]
  EC50 of T cell cytotoxicity (lysis of MOLM13 cells): 2.4 pM
  EC50 of T cell cytotoxicity, 4-hour 51Cr release assay, HL60 AML cells: 1.1 pM
  TDCC potency, fold against the heterodimer, 4 h chromium release assay, THP1 and MOLM13 cells: 12 fold
CD3 on activated T cells
  fold weaker binding (against heterodimer): 2.5 fold
  fold weaker binding (against huOKT3): 27 fold
